According to US20190211096A1:

Key:
[1] = target: human AMH of serum samples (human) (UniProt P03971); assay: VIDAS sandwich, detection AA011 conjugate 500 ng/ml, AMH 4 ng/ml
[2] = target: human AMH of serum samples (human) (UniProt P03971); assay: VIDAS sandwich, detection AA011 conjugate 500 ng/ml, AMH 11 ng/ml
[3] = target: human AMH of serum samples (human) (UniProt P03971); assay: VIDAS sandwich, detection AA011 conjugate 500 ng/ml, AMH 0.9 ng/ml
[4] = target: human AMH of serum samples (human) (UniProt P03971); assay: VIDAS sandwich, detection AA011 conjugate 500 ng/ml, AMH 2.1 ng/ml
[5] = target: human AMH of serum samples (human) (UniProt P03971); assay: VIDAS sandwich, detection AA011 conjugate 500 ng/ml, AMH 6.3 ng/ml
[6] = target: human AMH of serum samples (human) (UniProt P03971); assay: VIDAS sandwich, detection AA011 conjugate 500 ng/ml, AMH 8.7 ng/ml
[7] = target: human AMH of serum samples (human) (UniProt P03971); assay: VIDAS sandwich, detection AA011 conjugate 500 ng/ml, AMH 0.11 ng/ml
[8] = target: human AMH of serum samples (human) (UniProt P03971); assay: VIDAS sandwich, detection AA011 conjugate 500 ng/ml, AMH 0.055 ng/ml
[9] = target: human AMH of serum samples (human) (UniProt P03971); assay: VIDAS sandwich, detection AA011 conjugate 500 ng/ml, AMH 0.275 ng/ml

Sequence of UniProt P03971 (P03971 25-560 limits assumed): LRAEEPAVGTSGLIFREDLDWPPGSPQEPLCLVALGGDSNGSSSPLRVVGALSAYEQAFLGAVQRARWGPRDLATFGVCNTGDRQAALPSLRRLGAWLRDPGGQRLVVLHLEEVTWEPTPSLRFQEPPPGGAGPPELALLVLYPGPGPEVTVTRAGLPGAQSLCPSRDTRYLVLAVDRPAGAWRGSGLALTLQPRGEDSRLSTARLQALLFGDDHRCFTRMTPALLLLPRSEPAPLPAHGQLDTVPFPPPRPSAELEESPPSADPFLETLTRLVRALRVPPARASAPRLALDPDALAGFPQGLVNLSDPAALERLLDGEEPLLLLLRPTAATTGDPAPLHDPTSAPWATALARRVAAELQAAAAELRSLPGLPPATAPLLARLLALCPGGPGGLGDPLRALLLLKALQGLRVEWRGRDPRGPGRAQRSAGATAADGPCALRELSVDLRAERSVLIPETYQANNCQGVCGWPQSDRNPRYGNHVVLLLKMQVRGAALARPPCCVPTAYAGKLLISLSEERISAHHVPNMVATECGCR

- S/N (VIDAS RFV/RFV0) [1]: 65
- VIDAS RFV Signal [1]: 2940 RFV
- S/N (VIDAS RFV/RFV0) [2]: 120
- VIDAS RFV Signal [2]: 5390 RFV
- S/N (VIDAS RFV/RFV0) [3]: 16
- VIDAS RFV Signal [3]: 735 RFV
- S/N (VIDAS RFV/RFV0) [4]: 36
- VIDAS RFV Signal [4]: 1600 RFV
- S/N (VIDAS RFV/RFV0) [5]: 87
- VIDAS RFV Signal [5]: 3920 RFV
- S/N (VIDAS RFV/RFV0) [6]: 107
- VIDAS RFV Signal [6]: 4810 RFV
- S/N (VIDAS RFV/RFV0) [7]: 3
- VIDAS RFV Signal [7]: 113 RFV
- S/N (VIDAS RFV/RFV0) [8]: 2
- VIDAS RFV Signal [8]: 81 RFV
- S/N (VIDAS RFV/RFV0) [9]: 5
- VIDAS RFV Signal [9]: 209 RFV
Substance: AA012 commercial anti-AMH antibody (AnshLabs)
